Experimental data as given in PMC2289474.

Key:
[1] = molecular target: laminin (Engelbreth-Holm-Swarm tumor laminin, free of entactin) (mouse (endogenous in EHS tumor)) (UniProt P19137); assay: sedimentation assay of polymerization
[2] = molecular target: laminin/entactin complex (laminin-nidogen complex) of the EHS tumor (mouse (endogenous in EHS tumor)) (UniProt P19137); assay: sedimentation assay of polymerization
[3] = molecular target: laminin/entactin complex (laminin-nidogen complex) of the EHS tumor (mouse (endogenous in EHS tumor)) (UniProt P19137); assay: extraction of laminin from tissue matrix

| critical concentration of polymerization [1] [mg/mL] | critical concentration of polymerization [2] [mg/mL] | concentration of free laminin over the EHS matrix in buffer at 37 C [3] [mg/mL] | percent of total laminin of the EHS matrix extracted by 10 mM EDTA [3] [%] | Substance |
| --- | --- | --- | --- | --- |
| 0.1 |  |  |  | laminin (Engelbreth-Holm-Swarm tumor laminin, free of entactin), P19137 25-3083; P02469 22-1786; P02468 34-1607 |
|  | 0.1 | 0.08 | 79 | laminin/entactin complex (laminin-nidogen complex) of the EHS tumor, P19137 25-3083; P02469 22-1786; P02468 34-1607; P10493 29-1245 |
